# Test results as given in patent US20220002423A1 (GENERAL HOSPITAL, published 2022).
# B1: agonistic TNFR2 antibody TNFRAG1 (antibody, V domains shown)
# VH: EVQLQQFGAELVKPGASVKISCKASGYTFTDYNIDWVKQSHGKSLEWIGDINPNYDSTSYSQKFRGKATLTVDKSSSTAYMELRSLTSEDTAVYYCARGNSWYFDVWGAGTTVTVSS
# VL: QIVLTQSPALMSASPGEKVTMTCSASSSVRYMYWYQQKPRSSPKPWIYLTSNLASGVPARFSGSGSGTSYSLTISSMEAEDAATYYCQQWSSNPLTFGAGTKLELK
# notes: the primary antibodies were detected with secondary antibodies against rodent IgG; also called monoclonal TNFR2 antibody TNFRAG1; TNFR2 agonist antibody
# How the values were obtained:
# [1] = target: T1, Amino acid residues 50-69 of human TNFR2 (human); experiment: ELISA, antibody alone
# T1 peptide: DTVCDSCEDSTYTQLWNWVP
# [2] = target: T2, TNFR2, hTNFR2 (23-207), 20kD (human, UniProt P20333); experiment: ELISA, antibody alone
# T2 construct: fragment 23-207, 20kD (so in the source)
# T2 sequence (receptor fragment, looked up): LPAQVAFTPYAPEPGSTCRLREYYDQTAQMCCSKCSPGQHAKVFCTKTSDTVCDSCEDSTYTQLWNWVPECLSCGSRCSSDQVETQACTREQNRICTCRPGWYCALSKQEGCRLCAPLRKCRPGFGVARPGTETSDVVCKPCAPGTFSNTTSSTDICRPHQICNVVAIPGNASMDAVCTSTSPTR
# [3] = target: T3, Amino acid residues 66-85 of human TNFR2 (human); experiment: ELISA, antibody alone
# T3 peptide: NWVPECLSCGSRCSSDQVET
# [4] = target: T4, Amino acid residues 42-61 of human TNFR2 (human); experiment: ELISA, antibody alone
# T4 peptide: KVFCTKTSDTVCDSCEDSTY
# [5] = target: T5, Amino acid residues 9-28 of human TNFR2 (human); experiment: ELISA, antibody alone
# T5 peptide: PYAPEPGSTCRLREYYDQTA
# [6] = target: T6, Amino acid residues 17-36 of human TNFR2 (human); experiment: ELISA, antibody alone
# T6 peptide: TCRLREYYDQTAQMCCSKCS
# [7] = target: T7, Amino acid residues 58-77 of human TNFR2 (human); experiment: ELISA, antibody alone
# T7 peptide: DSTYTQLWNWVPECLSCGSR
# [8] = target: T8, Amino acid residues 82-101 of human TNFR2 (human); experiment: ELISA, antibody alone
# T8 peptide: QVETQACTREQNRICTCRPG
# [9] = target: T9, Amino acid residues 170-189 of human TNFR2 (human); experiment: ELISA, antibody alone
# T9 peptide: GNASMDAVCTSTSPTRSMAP
# [10] = target: T10, Amino acid residues 90-109 of human TNFR2 (human); experiment: ELISA, antibody alone
# T10 peptide: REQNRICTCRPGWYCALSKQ
# [11] = target: T11, Amino acid residues 74-93 of human TNFR2 (human); experiment: ELISA, antibody alone
# T11 peptide: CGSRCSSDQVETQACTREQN
# [12] = target: T12, Amino acid residues 26-45 of human TNFR2 (human); experiment: ELISA on TNFR2 peptide fragment; categorical score, 0 lowest to 4 highest affinity
# T12 sequence (peptide): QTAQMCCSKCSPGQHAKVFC
# [13] = target: T13, Amino acid residues 106-125 of human TNFR2 (human); experiment: as above
# T13 sequence (peptide): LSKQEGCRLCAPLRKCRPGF
# [14] = target: T14, Amino acid residues 34-53 of human TNFR2 (human); experiment: as above
# T14 sequence (peptide): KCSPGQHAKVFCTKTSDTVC
# [15] = target: T15, Amino acid residues 98-117 of human TNFR2 (human); experiment: as above
# T15 sequence (peptide): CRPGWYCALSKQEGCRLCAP
# [16] = target: Full-length human TNFR2 (human) (UniProt P20333); experiment: ELISA; categorical score, 0 lowest to 4 highest affinity
# [17] = target: T16, Amino acid residues 122-141 of human TNFR2 (human); experiment: ELISA, coated linear peptides 1 µg/well
# T16 peptide: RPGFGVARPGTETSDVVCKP
# Method: (§1) ELISA was also used to determine linear epitopes present on the extracellular surface of TNFR2. Linear peptides corresponding to various regions within the TNFR2 primary sequence were purchased from GenScript (Piscataway, N.J.), diluted in coating buffer and placed on Immulon 4HBX Flat Bottom Microtiter Plates (Thermo Scientific) at a concentration of 1 μg/well. Primary TNFR2 agonistic antibodies (0.1 μg/well) were incubated with substrates. Secondary antibodies against rodent IgG were used to detect the primary antibodies. Absorbance was measured using the SPECTRAMAX® 190 Absorbance Plate Reader and analyzed with SoftMax Pro 6.3 (Molecular Devices).
# [18] = target: T17, Amino acid residues 162-181 of human TNFR2 (human); experiment: ELISA, coated linear peptides 1 µg/well
# T17 peptide: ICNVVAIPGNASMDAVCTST
# Method: as §1
# [19] = target: T18, Amino acid residues 146-165 of human TNFR2 (human); experiment: ELISA, coated linear peptides 1 µg/well
# T18 peptide: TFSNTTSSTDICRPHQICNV
# Method: as §1
# [20] = target: T19, Amino acid residues 130-149 of human TNFR2 (human); experiment: ELISA, coated linear peptides 1 µg/well
# T19 peptide: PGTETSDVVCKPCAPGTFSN
# Method: as §1
# [21] = target: T20, Amino acid residues 154-174 of human TNFR2 (human); experiment: ELISA, coated linear peptides 1 µg/well
# T20 peptide: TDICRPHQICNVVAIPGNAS
# Method: as §1
# [22] = target: T8, Amino acid residues 82-101 of human …; experiment: ELISA, coated linear peptides 1 µg/well
# Method: as §1
# [23] = target: T21, Amino acid residues 114-133 of human TNFR2 (human); experiment: ELISA, coated linear peptides 1 µg/well
# T21 peptide: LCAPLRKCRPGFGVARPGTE
# Method: as §1
# [24] = target: T22, Amino acid residues 1-20 of human TNFR2 (human); experiment: ELISA, coated linear peptides 1 µg/well
# T22 construct: 20-mer fragment
# T22 peptide: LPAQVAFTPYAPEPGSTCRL
# Method: as §1
# [25] = target: T23, Amino acid residues 138-157 of human TNFR2 (human); experiment: ELISA, coated linear peptides 1 µg/well
# T23 peptide: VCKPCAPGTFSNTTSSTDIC
# Method: as §1
binder,measurement,setting,value
B1,binding result,[1],no binding
same,Reading,[2],1.2
same,Reading,[3],2
same,binding result,[4],no binding
same,binding result,[5],no binding
same,binding result,[6],no binding
same,binding result,[7],no binding
same,Reading,[8],2
same,binding result,[9],no binding
same,Reading,[10],2
same,Reading,[11],2
same,Affinity Score,[12],1
same,Affinity Score,[13],2
same,Affinity Score,[14],0
same,Affinity Score,[15],1
same,Affinity Score,[16],4
same,binding result,[17],no binding (tested: 0.1 µg/well)
same,binding result,[18],no binding (tested: 0.1 µg/well)
same,binding result,[19],no binding (tested: 0.1 µg/well)
same,binding result,[20],no binding (tested: 0.1 µg/well)
same,binding result,[21],no binding (tested: 0.1 µg/well)
same,binding result,[22],no binding (tested: 0.1 µg/well)
same,binding result,[23],no binding (tested: 0.1 µg/well)
same,binding result,[24],no binding (tested: 0.1 µg/well)
same,binding result,[25],no binding (tested: 0.1 µg/well)
